Reference: article PMC9352680, “A comprehensive thermodynamic model for RNA binding by the Saccharomyces cerevisiae Pumilio protein PUF4”

Biological target: T1, PUF4 RNA-binding domain (Saccharomyces cerevisiae, UniProt P25339 537-888)
T1 sequence: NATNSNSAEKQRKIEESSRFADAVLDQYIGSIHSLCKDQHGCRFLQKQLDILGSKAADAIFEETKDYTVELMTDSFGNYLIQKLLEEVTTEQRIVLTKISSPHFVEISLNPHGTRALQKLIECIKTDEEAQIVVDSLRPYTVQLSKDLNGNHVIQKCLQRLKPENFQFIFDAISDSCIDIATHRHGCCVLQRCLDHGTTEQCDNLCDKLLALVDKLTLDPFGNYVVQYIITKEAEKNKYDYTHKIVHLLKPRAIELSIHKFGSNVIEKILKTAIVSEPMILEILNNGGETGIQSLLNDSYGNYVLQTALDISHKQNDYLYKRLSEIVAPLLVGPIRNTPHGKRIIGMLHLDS
Assay: Mg; RNA-MaP; 20 mM Na-HEPES pH 7.4, 30 mM KOAc, 0.75 mM MgCl2, 0.1% Tween-20, 5% glycerol, 0.1 mg/mL BSA, 2 mM DTT; 25 C; 0.0125-409.6 nM protein
Conditions: tags: N-His6-TEV cleaved; C-SNAP kept, Cy3B-labelled; label: tethered on chip by stalled RNA polymerase

Binder	Kd [nM]
UCUCUUUGUAUCACUAUCUCUU (ssRNA) [Ib_S1_P5E.1_K5.1_C5.1_H5.1_A5.1_[T6C]_F5.1_[T8C]_T5.1]	18
UCUCUUUGUAUCAAUAUCUCUU (ssRNA) [Ib_S1_P5E.1_K5.1_C5.1_H5.1_A5.1_[T6C]_F5.1_[T8A]_T5.1]	13.4
UCUCUUUGUAUGACUAUCUCUU (ssRNA) [Ib_S1_P5E.1_K5.1_C5.1_H5.1_A5.1_[T6G]_F5.1_[T8C]_T5.1]	31.2
UCUCUUUGUAUAACUAUCUCUU (ssRNA) [Ic_S1_P5E.1_K5.1_C5.1_H5.1_A5.1_[T6A]_F5.1_[T8C]_T5.1]	8.58
UCUCUUUGUGUUAUUAUCUCUU (ssRNA) [Ia_S1_P5E.1_K5.1_C5.1_H5.1_[A4G]_A5.1_F5.1_T5.1]	30.7
Id_ii_S2_P5E.2_K5.1_C5.2_[C-2T]_H5.1_A5.1_F5.1_T5.2_[A12C] (ssRNA) RNA: UUUGAUUAAUAUGAUAUCGUUCUUUCUUUUGUAUUAUUAUCUUCUUUCUCGAUAUCAUAUUAAUCUUU	1.86
Id_ii_S2_P5E.2_K5.1_C5.2_[T-1A]_H5.1_A5.1_F5.1_T5.2_[T11A]_[A12C] (ssRNA) RNA: UUUGAUUAAUAUGAUAUCGUUCUUUCUCAUGUAUUAUUAACUUCUUUCUCGAUAUCAUAUUAAUCUUU	4.53
Id_ii_S2_P5E.2_K5.1_C5.2_[C-2A]_H5.1_A5.1_F5.1_T5.2_[T11A]_[A12T] (ssRNA) RNA: UUUGAUUAAUAUGAUAUCGUUCUUUCUAUUGUAUUAUUAAUUUCUUUCUCGAUAUCAUAUUAAUCUUU	5.79
Id_ii_S2_P5E.2_K5.1_C5.2_[C-2A]_[T-1A]_H5.1_A5.1_F5.1_T5.2_[T11A]_[A12C] (ssRNA) RNA: UUUGAUUAAUAUGAUAUCGUUCUUUCUAAUGUAUUAUUAACUUCUUUCUCGAUAUCAUAUUAAUCUUU	19
Id_ii_S2_P5E.2_K5.1_C5.2_[T-1G]_H5.1_A5.1_F5.1_T5.2_[A12T] (ssRNA) RNA: UUUGAUUAAUAUGAUAUCGUUCUUUCUCGUGUAUUAUUAUUUUCUUUCUCGAUAUCAUAUUAAUCUUU	1.54
Id_ii_S2_P5E.2_K5.1_C5.2_[C-2A]_H5.1_A5.1_F5.1_T5.2_[A12G] (ssRNA) RNA: UUUGAUUAAUAUGAUAUCGUUCUUUCUAUUGUAUUAUUAUGUUCUUUCUCGAUAUCAUAUUAAUCUUU	5.06
Id_ii_S2_P5E.2_K5.1_C5.2_[T-1A]_H5.1_A5.1_F5.1_T5.2_[T11A]_[A12T] (ssRNA) RNA: UUUGAUUAAUAUGAUAUCGUUCUUUCUCAUGUAUUAUUAAUUUCUUUCUCGAUAUCAUAUUAAUCUUU	4.3
Id_ii_S2_P5E.2_K5.1_C5.2_H5.1_A5.1_F5.1_T5.2_[T11A]_[A12T] (ssRNA) RNA: UUUGAUUAAUAUGAUAUCGUUCUUUCUCUUGUAUUAUUAAUUUCUUUCUCGAUAUCAUAUUAAUCUUU	1.79
Id_ii_S2_P5E.2_K5.1_C5.2_[T-1C]_H5.1_A5.1_F5.1_T5.2_[T11A]_[A12G] (ssRNA) RNA: UUUGAUUAAUAUGAUAUCGUUCUUUCUCCUGUAUUAUUAAGUUCUUUCUCGAUAUCAUAUUAAUCUUU	9.77
Id_ii_S2_P5E.2_K5.1_C5.2_[C-2T]_H5.1_A5.1_F5.1_T5.2_[A12T] (ssRNA) RNA: UUUGAUUAAUAUGAUAUCGUUCUUUCUUUUGUAUUAUUAUUUUCUUUCUCGAUAUCAUAUUAAUCUUU	1.44
Id_ii_S2_P5E.2_K5.1_C5.2_[C-2A]_[T-1C]_H5.1_A5.1_F5.1_T5.2_[T11A]_[A12T] (ssRNA) RNA: UUUGAUUAAUAUGAUAUCGUUCUUUCUACUGUAUUAUUAAUUUCUUUCUCGAUAUCAUAUUAAUCUUU	3.61
Id_ii_S2_P5E.2_K5.1_C5.2_[C-2A]_H5.1_A5.1_F5.1_T5.2_[A12T] (ssRNA) RNA: UUUGAUUAAUAUGAUAUCGUUCUUUCUAUUGUAUUAUUAUUUUCUUUCUCGAUAUCAUAUUAAUCUUU	2.99
Id_ii_S2_P5E.2_K5.1_C5.2_[T-1A]_H5.1_A5.1_F5.1_T5.2_[T11G]_[A12C] (ssRNA) RNA: UUUGAUUAAUAUGAUAUCGUUCUUUCUCAUGUAUUAUUAGCUUCUUUCUCGAUAUCAUAUUAAUCUUU	2.55
Id_ii_S2_P5E.2_K5.1_C5.2_[T-1G]_H5.1_A5.1_F5.1_T5.2_[T11G]_[A12T] (ssRNA) RNA: UUUGAUUAAUAUGAUAUCGUUCUUUCUCGUGUAUUAUUAGUUUCUUUCUCGAUAUCAUAUUAAUCUUU	1.86
Id_ii_S2_P5E.2_K5.1_C5.2_[C-2A]_[T-1G]_H5.1_A5.1_F5.1_T5.2_[T11A]_[A12T] (ssRNA) RNA: UUUGAUUAAUAUGAUAUCGUUCUUUCUAGUGUAUUAUUAAUUUCUUUCUCGAUAUCAUAUUAAUCUUU	7.45
Id_ii_S2_P5E.2_K5.1_C5.2_[T-1C]_H5.1_A5.1_F5.1_T5.2_[T11A]_[A12C] (ssRNA) RNA: UUUGAUUAAUAUGAUAUCGUUCUUUCUCCUGUAUUAUUAACUUCUUUCUCGAUAUCAUAUUAAUCUUU	3.51
Id_ii_S2_P5E.2_K5.1_C5.2_[T-1A]_H5.1_A5.1_F5.1_T5.2_[T11G]_[A12T] (ssRNA) RNA: UUUGAUUAAUAUGAUAUCGUUCUUUCUCAUGUAUUAUUAGUUUCUUUCUCGAUAUCAUAUUAAUCUUU	2.92
Id_ii_S2_P5E.2_K5.1_C5.2_[T-1G]_H5.1_A5.1_F5.1_T5.2_[T11A]_[A12C] (ssRNA) RNA: UUUGAUUAAUAUGAUAUCGUUCUUUCUCGUGUAUUAUUAACUUCUUUCUCGAUAUCAUAUUAAUCUUU	6.1

Binder	Kd [nM]
Id_ii_S2_P5E.2_K5.1_C5.2_[C-2A]_[T-1C]_H5.1_A5.1_F5.1_T5.2_[A12C] (ssRNA) RNA: UUUGAUUAAUAUGAUAUCGUUCUUUCUACUGUAUUAUUAUCUUCUUUCUCGAUAUCAUAUUAAUCUUU	2.94
Id_ii_S2_P5E.2_K5.1_C5.2_H5.1_A5.1_F5.1_T5.2_[T11G]_[A12C] (ssRNA) RNA: UUUGAUUAAUAUGAUAUCGUUCUUUCUCUUGUAUUAUUAGCUUCUUUCUCGAUAUCAUAUUAAUCUUU	1.71
Id_ii_S2_P5E.2_K5.1_C5.2_[C-2A]_[T-1C]_H5.1_A5.1_F5.1_T5.2_[A12G] (ssRNA) RNA: UUUGAUUAAUAUGAUAUCGUUCUUUCUACUGUAUUAUUAUGUUCUUUCUCGAUAUCAUAUUAAUCUUU	31.6
Id_ii_S2_P5E.2_K5.1_C5.2_[C-2A]_[T-1A]_H5.1_A5.1_F5.1_T5.2_[A12C] (ssRNA) RNA: UUUGAUUAAUAUGAUAUCGUUCUUUCUAAUGUAUUAUUAUCUUCUUUCUCGAUAUCAUAUUAAUCUUU	9.68
Id_ii_S2_P5E.2_K5.1_C5.2_[T-1G]_H5.1_A5.1_F5.1_T5.2_[T11A] (ssRNA) RNA: UUUGAUUAAUAUGAUAUCGUUCUUUCUCGUGUAUUAUUAAAUUCUUUCUCGAUAUCAUAUUAAUCUUU	3.97
Id_ii_S2_P5E.2_K5.1_C5.2_[T-1A]_H5.1_A5.1_F5.1_T5.2_[A12T] (ssRNA) RNA: UUUGAUUAAUAUGAUAUCGUUCUUUCUCAUGUAUUAUUAUUUUCUUUCUCGAUAUCAUAUUAAUCUUU	3.27
Id_ii_S2_P5E.2_K5.1_C5.2_[T-1C]_H5.1_A5.1_F5.1_T5.2_[A12C] (ssRNA) RNA: UUUGAUUAAUAUGAUAUCGUUCUUUCUCCUGUAUUAUUAUCUUCUUUCUCGAUAUCAUAUUAAUCUUU	1.5
Id_ii_S2_P5E.2_K5.1_C5.2_[T-1C]_H5.1_A5.1_F5.1_T5.2_[A12T] (ssRNA) RNA: UUUGAUUAAUAUGAUAUCGUUCUUUCUCCUGUAUUAUUAUUUUCUUUCUCGAUAUCAUAUUAAUCUUU	0.992
Id_ii_S2_P5E.2_K5.1_C5.2_[C-2A]_[T-1C]_H5.1_A5.1_F5.1_T5.2_[A12T] (ssRNA) RNA: UUUGAUUAAUAUGAUAUCGUUCUUUCUACUGUAUUAUUAUUUUCUUUCUCGAUAUCAUAUUAAUCUUU	2.49
Id_ii_S2_P5E.2_K5.1_C5.2_[T-1G]_H5.1_A5.1_F5.1_T5.2_[T11G]_[A12C] (ssRNA) RNA: UUUGAUUAAUAUGAUAUCGUUCUUUCUCGUGUAUUAUUAGCUUCUUUCUCGAUAUCAUAUUAAUCUUU	2.28
Id_ii_S2_P5E.2_K5.1_C5.2_H5.1_A5.1_F5.1_T5.2_[T11A]_[A12C] (ssRNA) RNA: UUUGAUUAAUAUGAUAUCGUUCUUUCUCUUGUAUUAUUAACUUCUUUCUCGAUAUCAUAUUAAUCUUU	4.41
Id_ii_S2_P5E.2_K5.1_C5.2_[C-2A]_[T-1C]_H5.1_A5.1_F5.1_T5.2_[T11A]_[A12C] (ssRNA) RNA: UUUGAUUAAUAUGAUAUCGUUCUUUCUACUGUAUUAUUAACUUCUUUCUCGAUAUCAUAUUAAUCUUU	5.62
Id_ii_S2_P5E.2_K5.1_C5.2_[T-1C]_H5.1_A5.1_F5.1_T5.2_[A12G] (ssRNA) RNA: UUUGAUUAAUAUGAUAUCGUUCUUUCUCCUGUAUUAUUAUGUUCUUUCUCGAUAUCAUAUUAAUCUUU	2.27
Id_ii_S2_P5E.2_K5.1_C5.2_[T-1G]_H5.1_A5.1_F5.1_T5.2_[A12C] (ssRNA) RNA: UUUGAUUAAUAUGAUAUCGUUCUUUCUCGUGUAUUAUUAUCUUCUUUCUCGAUAUCAUAUUAAUCUUU	2.68
Id_ii_S2_P5E.2_K5.1_C5.2_[T-1A]_H5.1_A5.1_F5.1_T5.2_[T11A]_[A12G] (ssRNA) RNA: UUUGAUUAAUAUGAUAUCGUUCUUUCUCAUGUAUUAUUAAGUUCUUUCUCGAUAUCAUAUUAAUCUUU	26.7
Id_ii_S2_P5E.2_K5.1_C5.2_[T-1C]_H5.1_A5.1_F5.1_T5.2_[T11A] (ssRNA) RNA: UUUGAUUAAUAUGAUAUCGUUCUUUCUCCUGUAUUAUUAAAUUCUUUCUCGAUAUCAUAUUAAUCUUU	3.1
Id_ii_S2_P5E.2_K5.1_C5.2_[T-1G]_H5.1_A5.1_F5.1_T5.2_[T11A]_[A12T] (ssRNA) RNA: UUUGAUUAAUAUGAUAUCGUUCUUUCUCGUGUAUUAUUAAUUUCUUUCUCGAUAUCAUAUUAAUCUUU	2.03
Id_ii_S2_P5E.2_K5.1_C5.2_[T-1C]_H5.1_A5.1_F5.1_T5.2_[T11A]_[A12T] (ssRNA) RNA: UUUGAUUAAUAUGAUAUCGUUCUUUCUCCUGUAUUAUUAAUUUCUUUCUCGAUAUCAUAUUAAUCUUU	1.44
Id_ii_S2_P5E.2_K5.1_C5.2_[C-2A]_H5.1_A5.1_F5.1_T5.2_[A12C] (ssRNA) RNA: UUUGAUUAAUAUGAUAUCGUUCUUUCUAUUGUAUUAUUAUCUUCUUUCUCGAUAUCAUAUUAAUCUUU	3.2
Id_ii_S2_P5E.2_K5.1_C5.2_[C-2A]_[T-1A]_H5.1_A5.1_F5.1_T5.2_[T11A]_[A12T] (ssRNA) RNA: UUUGAUUAAUAUGAUAUCGUUCUUUCUAAUGUAUUAUUAAUUUCUUUCUCGAUAUCAUAUUAAUCUUU	20.4
Id_ii_S2_P5E.2_K5.1_C5.2_[C-2A]_H5.1_A5.1_F5.1_T5.2_[T11A]_[A12C] (ssRNA) RNA: UUUGAUUAAUAUGAUAUCGUUCUUUCUAUUGUAUUAUUAACUUCUUUCUCGAUAUCAUAUUAAUCUUU	6.07
Id_ii_S2_P5E.2_K5.1_C5.2_[T-1A]_H5.1_A5.1_F5.1_T5.2_[A12C] (ssRNA) RNA: UUUGAUUAAUAUGAUAUCGUUCUUUCUCAUGUAUUAUUAUCUUCUUUCUCGAUAUCAUAUUAAUCUUU	2.97
